Results reported in paper PMC11162425.

Experiments:
[1] = target: Lcl-N GFP fusion (N-GFP) (Legionella pneumophila strain 130b); assay: SEC
[2] = target: Legionella collagen-like protein (Lcl) from L. pneumophila strain 130b, intact recombinant (residues 1-401) (Legionella pneumophila strain 130b); assay: SEC-MALS

Substance | stoichiometry N [1] | stoichiometry N [2]
Lcl-N GFP fusion (N-GFP) (domain or fragment) | 3 | –
Legionella collagen-like protein (Lcl) from L. pneumophila strain 130b, intact recombinant (residues 1-401) (natural protein) | – | 3
